Reference: paper PMC10710730, “ProNGF promotes brain metastasis through TrkA/EphA2 induced Src activation in triple negative breast cancer cells” (Experimental Hematology & Oncology, 2023)

Target: T1, EphA2, endogenous in MDA-MB-231 cells (human (endogenous in MDA-MB-231), UniProt P29317 24-976)
T1 construct: EphA2 receptor, endogenous in the human breast cancer cell line MDA-MB-231; also called EphA2 receptor; source: endogenous, MDA-MB-231 cells
Experiment: proximity ligation; Duolink in Situ-Red kit rabbit/goat on PFA-fixed cells on collagen I coated slides; TrkA/EphA2 red dots per cell counted; cells treated with proNGF (0.5 nM, 0 to 120 min), in MDA-MB-231 TrkA also with p75NTR siRNA
Details: partners not purified

T1 sequence (P29317 24-976): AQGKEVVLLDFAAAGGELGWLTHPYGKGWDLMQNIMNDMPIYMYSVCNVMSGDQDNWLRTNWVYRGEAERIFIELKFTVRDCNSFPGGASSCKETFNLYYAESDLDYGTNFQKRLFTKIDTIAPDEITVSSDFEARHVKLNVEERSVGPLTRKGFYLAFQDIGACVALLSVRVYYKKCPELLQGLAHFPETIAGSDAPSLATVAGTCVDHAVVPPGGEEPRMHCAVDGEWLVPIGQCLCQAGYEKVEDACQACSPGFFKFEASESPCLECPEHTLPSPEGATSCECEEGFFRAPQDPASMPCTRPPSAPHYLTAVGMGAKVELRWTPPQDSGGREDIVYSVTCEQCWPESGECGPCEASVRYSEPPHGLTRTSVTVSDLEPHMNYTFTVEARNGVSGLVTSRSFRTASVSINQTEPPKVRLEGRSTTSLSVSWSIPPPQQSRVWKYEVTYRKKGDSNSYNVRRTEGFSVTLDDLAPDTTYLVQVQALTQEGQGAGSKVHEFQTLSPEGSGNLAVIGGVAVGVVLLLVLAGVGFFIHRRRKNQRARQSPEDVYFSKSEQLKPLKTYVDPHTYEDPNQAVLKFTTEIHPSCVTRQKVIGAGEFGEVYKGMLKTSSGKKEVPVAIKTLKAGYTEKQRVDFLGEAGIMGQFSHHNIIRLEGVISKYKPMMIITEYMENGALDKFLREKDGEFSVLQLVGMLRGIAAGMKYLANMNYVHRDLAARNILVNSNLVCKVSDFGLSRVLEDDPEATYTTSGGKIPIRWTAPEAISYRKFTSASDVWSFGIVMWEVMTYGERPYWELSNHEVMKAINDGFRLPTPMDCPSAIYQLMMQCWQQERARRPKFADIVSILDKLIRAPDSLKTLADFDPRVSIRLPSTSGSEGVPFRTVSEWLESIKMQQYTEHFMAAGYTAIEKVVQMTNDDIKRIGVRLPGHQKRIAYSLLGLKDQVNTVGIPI

- fold increase of TrkA/EphA2 PLA signal, proNGF 60 min over 0 min: 2 fold
B1: TrkA (tyrosine kinase receptor TrkA, Tropomyosin kinase A), overexpressed in MDA-MB-231 cells (receptor)
chain: not shown
notes: TrkA, receptor of NGF and proNGF; also called MDA-MB-231-TrkA; MDA-MB-231 HA-TrkA
